Experimental data reported in paper PMC5560056 (Molecular cell, 2016).
Like-named read-outs stand apart in the source and are kept apart here. Values belong to the binder of their own block, whether it stands above or below them.

Tests used:
[1] = target: T1, recombinant human Pds5B_(21–1120) (human, UniProt Q9NTI5 21-1120); test: ITC
T1 sequence (looked up): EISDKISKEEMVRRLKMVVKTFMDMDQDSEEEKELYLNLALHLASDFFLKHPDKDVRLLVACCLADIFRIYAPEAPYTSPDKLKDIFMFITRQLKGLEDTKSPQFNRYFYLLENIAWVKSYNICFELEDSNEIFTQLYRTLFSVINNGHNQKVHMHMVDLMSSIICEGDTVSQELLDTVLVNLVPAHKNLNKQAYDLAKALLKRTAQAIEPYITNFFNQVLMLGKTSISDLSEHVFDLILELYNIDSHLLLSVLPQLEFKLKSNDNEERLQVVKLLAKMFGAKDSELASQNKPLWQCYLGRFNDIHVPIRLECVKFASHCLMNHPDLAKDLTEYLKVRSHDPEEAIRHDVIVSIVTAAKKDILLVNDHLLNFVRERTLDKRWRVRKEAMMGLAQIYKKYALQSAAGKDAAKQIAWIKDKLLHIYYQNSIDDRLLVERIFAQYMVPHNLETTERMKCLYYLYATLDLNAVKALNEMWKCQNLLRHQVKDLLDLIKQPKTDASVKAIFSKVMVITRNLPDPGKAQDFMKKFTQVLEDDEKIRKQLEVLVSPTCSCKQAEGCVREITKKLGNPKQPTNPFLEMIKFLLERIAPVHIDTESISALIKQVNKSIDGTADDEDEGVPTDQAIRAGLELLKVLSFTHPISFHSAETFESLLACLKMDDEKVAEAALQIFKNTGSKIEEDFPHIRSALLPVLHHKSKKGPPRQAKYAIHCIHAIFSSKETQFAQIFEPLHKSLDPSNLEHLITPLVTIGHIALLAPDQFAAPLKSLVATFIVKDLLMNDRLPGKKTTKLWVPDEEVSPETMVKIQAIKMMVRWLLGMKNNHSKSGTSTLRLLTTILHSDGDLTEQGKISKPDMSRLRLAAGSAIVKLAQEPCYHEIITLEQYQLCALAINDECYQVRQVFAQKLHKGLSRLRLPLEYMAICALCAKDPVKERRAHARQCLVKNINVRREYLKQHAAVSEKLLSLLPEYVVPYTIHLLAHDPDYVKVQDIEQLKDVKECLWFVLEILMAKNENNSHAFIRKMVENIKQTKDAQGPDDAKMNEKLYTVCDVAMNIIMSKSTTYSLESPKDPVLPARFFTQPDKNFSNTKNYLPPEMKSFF

[2] = target: T2, recombinant human Pds5B_(21–1120) Y445A/N447A (human, UniProt Q9NTI5 21-1120, Y445A | N447A); test: pull-down
T2 sequence (looked up): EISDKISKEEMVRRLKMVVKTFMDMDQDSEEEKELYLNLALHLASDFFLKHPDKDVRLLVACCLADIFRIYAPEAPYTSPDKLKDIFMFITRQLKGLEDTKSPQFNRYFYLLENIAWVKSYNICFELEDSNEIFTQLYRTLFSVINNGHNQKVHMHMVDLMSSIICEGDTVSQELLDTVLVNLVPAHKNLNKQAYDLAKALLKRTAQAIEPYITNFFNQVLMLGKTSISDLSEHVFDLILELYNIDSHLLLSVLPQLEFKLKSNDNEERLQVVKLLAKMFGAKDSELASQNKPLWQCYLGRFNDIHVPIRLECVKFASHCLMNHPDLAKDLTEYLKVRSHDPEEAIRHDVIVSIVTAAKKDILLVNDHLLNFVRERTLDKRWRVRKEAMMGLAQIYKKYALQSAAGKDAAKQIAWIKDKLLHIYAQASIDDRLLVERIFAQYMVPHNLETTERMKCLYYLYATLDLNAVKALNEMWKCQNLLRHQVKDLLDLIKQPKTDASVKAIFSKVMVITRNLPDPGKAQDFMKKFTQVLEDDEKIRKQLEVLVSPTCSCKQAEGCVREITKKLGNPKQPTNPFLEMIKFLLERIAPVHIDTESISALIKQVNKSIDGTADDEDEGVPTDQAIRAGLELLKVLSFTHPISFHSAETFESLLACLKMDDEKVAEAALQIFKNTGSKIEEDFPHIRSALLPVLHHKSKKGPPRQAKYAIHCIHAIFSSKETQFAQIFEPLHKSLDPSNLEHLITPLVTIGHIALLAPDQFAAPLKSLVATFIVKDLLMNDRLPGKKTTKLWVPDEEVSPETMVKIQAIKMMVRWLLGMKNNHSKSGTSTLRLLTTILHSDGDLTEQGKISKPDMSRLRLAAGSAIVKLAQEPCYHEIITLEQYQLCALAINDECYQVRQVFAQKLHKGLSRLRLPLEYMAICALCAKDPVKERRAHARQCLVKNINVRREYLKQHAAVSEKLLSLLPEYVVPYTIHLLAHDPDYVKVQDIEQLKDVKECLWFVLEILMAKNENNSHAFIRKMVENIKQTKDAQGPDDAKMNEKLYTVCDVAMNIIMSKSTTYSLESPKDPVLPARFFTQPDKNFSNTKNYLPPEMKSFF

[3] = target: T3, recombinant human Pds5B_(1–1120) (human, UniProt Q9NTI5 1-1120); test: pull-down
T3 sequence (looked up): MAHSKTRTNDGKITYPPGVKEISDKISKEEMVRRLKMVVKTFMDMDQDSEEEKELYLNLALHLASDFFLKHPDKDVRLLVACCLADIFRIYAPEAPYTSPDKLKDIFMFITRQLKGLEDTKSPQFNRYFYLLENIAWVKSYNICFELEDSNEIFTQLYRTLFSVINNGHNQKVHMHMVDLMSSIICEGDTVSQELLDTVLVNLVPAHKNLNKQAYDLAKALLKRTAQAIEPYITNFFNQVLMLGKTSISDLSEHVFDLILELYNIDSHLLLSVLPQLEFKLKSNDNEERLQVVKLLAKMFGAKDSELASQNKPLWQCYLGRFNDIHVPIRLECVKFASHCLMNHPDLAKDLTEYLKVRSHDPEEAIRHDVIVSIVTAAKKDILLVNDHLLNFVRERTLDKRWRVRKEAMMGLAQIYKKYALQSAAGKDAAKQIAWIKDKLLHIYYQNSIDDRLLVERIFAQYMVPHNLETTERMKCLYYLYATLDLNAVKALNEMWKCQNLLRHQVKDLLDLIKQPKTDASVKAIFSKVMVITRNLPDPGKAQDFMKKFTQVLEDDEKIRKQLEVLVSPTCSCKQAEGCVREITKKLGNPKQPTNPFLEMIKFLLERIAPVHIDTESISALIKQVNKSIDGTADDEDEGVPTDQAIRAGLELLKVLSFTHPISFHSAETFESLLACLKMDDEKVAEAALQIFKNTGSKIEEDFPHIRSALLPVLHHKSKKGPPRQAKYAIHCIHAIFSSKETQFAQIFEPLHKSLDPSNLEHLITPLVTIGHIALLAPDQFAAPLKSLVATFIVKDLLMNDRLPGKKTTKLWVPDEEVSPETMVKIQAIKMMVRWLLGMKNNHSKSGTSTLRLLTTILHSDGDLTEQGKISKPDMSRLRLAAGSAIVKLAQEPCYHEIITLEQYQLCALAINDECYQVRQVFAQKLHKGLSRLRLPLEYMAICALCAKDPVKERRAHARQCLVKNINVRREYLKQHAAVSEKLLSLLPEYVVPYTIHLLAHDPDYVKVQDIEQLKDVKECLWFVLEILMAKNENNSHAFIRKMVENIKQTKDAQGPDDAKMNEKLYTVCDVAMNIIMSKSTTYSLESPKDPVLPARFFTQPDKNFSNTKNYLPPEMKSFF

[4] = target: T3, recombinant human Pds5B_(1–1120); test: pull-down; remark: listed apart in the source
[5] = target: T4, selenomethionine-containing Pds5B_(21–1120) (human, UniProt Q9NTI5 21-1120, selenomethionine-containing); test: crystal structure
T4 sequence (looked up): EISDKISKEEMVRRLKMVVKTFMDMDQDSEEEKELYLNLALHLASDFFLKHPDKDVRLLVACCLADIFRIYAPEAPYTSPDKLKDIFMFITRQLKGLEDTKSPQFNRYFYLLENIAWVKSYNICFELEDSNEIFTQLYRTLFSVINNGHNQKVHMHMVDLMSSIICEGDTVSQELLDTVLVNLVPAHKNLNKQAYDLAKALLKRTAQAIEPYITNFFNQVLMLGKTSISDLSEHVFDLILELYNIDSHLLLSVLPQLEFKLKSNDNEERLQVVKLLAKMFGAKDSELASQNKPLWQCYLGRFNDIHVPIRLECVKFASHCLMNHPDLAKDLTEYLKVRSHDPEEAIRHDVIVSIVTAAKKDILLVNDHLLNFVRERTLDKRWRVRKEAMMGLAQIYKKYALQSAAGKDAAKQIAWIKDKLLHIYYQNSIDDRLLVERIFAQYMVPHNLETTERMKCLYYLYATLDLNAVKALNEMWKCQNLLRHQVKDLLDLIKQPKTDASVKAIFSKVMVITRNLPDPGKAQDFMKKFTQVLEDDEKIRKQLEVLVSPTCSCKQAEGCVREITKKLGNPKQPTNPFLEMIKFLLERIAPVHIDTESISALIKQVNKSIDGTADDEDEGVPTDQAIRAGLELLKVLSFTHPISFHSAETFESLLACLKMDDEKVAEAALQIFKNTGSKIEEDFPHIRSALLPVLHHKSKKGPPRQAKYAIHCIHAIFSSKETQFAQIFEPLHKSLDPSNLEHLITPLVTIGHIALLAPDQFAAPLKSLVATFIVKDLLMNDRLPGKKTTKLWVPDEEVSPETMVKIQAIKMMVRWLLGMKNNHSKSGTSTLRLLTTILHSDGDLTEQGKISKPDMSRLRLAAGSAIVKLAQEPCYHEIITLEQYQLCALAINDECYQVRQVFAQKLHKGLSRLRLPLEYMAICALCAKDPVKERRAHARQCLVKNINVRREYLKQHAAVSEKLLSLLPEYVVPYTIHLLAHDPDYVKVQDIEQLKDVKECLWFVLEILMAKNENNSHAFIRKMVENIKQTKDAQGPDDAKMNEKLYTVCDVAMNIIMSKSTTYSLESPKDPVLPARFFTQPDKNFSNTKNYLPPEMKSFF

Kd [1]: 4.3 nM
B1: recombinant purified Scc1_(76–150) (domain or fragment, human, UniProt O60216 76-150, looked up)
chain: ADCNEAFIKIKMAFRPGVVDLPEENREAAYNAITLPEEFHDFDQPLPDLDDIDVAQQFSLNQSRVEEITMREEVG

binding result [2]: binds
B2: GST-Scc1_(76–150) (domain or fragment, human, UniProt O60216 76-150, looked up)
chain: ADCNEAFIKIKMAFRPGVVDLPEENREAAYNAITLPEEFHDFDQPLPDLDDIDVAQQFSLNQSRVEEITMREEVG

binding result [3]: binds
B3: synthetic Sororin peptide (residues 132–171) (peptide, UniProt Q96FF9 132-171, looked up)
peptide: DARDLEMSKKVRRSYSRLETLGSASTSTPGRRSCFGFEGL

binding result [4]: binds
B4: Sororin residues 131–171 (domain or fragment, human, UniProt Q96FF9 131-171, looked up)
chain: LDARDLEMSKKVRRSYSRLETLGSASTSTPGRRSCFGFEGL

binding result [5]: binds
B5: synthetic Wapl_(1–33) peptide (peptide, UniProt Q7Z5K2 1-33, looked up)
peptide: MTSRFGKTYSRKGGNGSSKFDEVFSNKRTTLST
